# Measurements taken from article PMC9947658, “Escherichia coli CspA stimulates translation in the cold of its own mRNA by promoting ribosome progression”.
# Experiments:
# CspA [1] = target: T1, CspA (Escherichia coli, UniProt P0A9X9 1-70); experiment: tryptophan fluorescence quenching; 20°C; Trp fluorescence: 1 uM CspA, Buffer H, 20°C; EMSA: Buffer O, 15 or 37°C, 10% native PAGE at 4°C; Fe-EDTA footprinting: Buffer N, 15°C; UV cross-linking at 15°C; buffer compositions not given in the material; settings: protein: recombinant; tags: His-tag (pETM11) removed with TEV; single strand
# T1 sequence (P0A9X9 whole entry): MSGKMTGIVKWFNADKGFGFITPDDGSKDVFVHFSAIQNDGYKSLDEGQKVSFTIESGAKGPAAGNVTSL
# [2] = target: Escherichia coli 30S ribosomal subunits (E. coli); experiment: ITC; control experiment: IF1 and 30S subunits, at low temperature, under comparable conditions; ITC buffer
# CspA [3] = target: T1, CspA; experiment: tryptophan fluorescence quenching; 20°C; text calls the G6A variant oligo 6, table and Fig S10 oligo 5; Trp fluorescence: 1 uM CspA, Buffer H, 20°C; EMSA: Buffer O, 15 or 37°C, 10% native PAGE at 4°C; Fe-EDTA footprinting: Buffer N, 15°C; UV cross-linking at 15°C; buffer compositions not given in the material; settings: protein: recombinant; tags: His-tag (pETM11) removed with TEV; single strand
Binder,Kd (CspA [1]),further results
AACUGGAA (ssRNA) [Oligo 6],2080 ± 140 nM,
AACUGGUA (ssRNA) [Oligo 1],1240 ± 80 nM,
AAAAAAAAA (ssRNA) [Oligo 7 (poly-A)],5130 ± 1150 nM,
AACAGGUA (ssRNA) [Oligo 3],1240 ± 50 nM,
AAAUGGUA (ssRNA) [Oligo 2],2300 ± 130 nM,
initiation factor IF1 (natural protein) MAKEDNIEMQGTVLETLPNTMFRVELENGHVVTAHISGKMRKNYIRILTGDKVTVELTPYDLSKGRIVFRSR,,Kd [2]: 806 nM
AACUGAUA (ssRNA) [Oligo 5],,Kd (CspA [3]): 4860 ± 240 nM
AACUAGUA (ssRNA) [Oligo 4],1030 ± 60 nM,
